Measured values from US20050025779A1.

Assays:
Assay in all cases: cell-based or functional assay
[1] = molecular target: HIV-1 NL4-3 envelope glycoprotein, on pseudotyped virus (HIV-1)
[2] = molecular target: amphotropic murine leukemia virus envelope protein, on pseudotyped virus (amphotropic murine leukemia virus)
[3] = molecular target: HIV-1 92HT594 envelope glycoprotein, on pseudotyped virus (HIV-1)
[4] = molecular target: HIV-1 JRCSF envelope glycoprotein, on pseudotyped virus (HIV-1)

| Substance | IC50 of virus infectivity (neutralization), U87 CD4/CXCR4 cells [1] | IC50 of virus infectivity (neutralization), U87 CD4/CCR5 cells [2] | IC50 of virus infectivity (neutralization), U87 CD4/CXCR4 cells [2] | IC50 of virus infectivity (neutralization), U87 CD4/CCR5 cells [3] | IC50 of virus infectivity (neutralization), U87 CD4/CXCR4 cells [3] | IC50 of virus infectivity (neutralization), U87 CD4/CCR5 cells [4] |
| --- | --- | --- | --- | --- | --- | --- |
| monoclonal antibody 4E10 | 1.42 µg/mL | > 50 µg/mL | > 50 µg/mL | 2.94 µg/mL | 2.67 µg/mL | 7.91 µg/mL |
| monoclonal antibody 2G12 | 0.473 µg/mL | > 50 µg/mL | > 50 µg/mL | 1.94 µg/mL | 2.39 µg/mL | 0.764 µg/mL |
| monoclonal antibody 2F5 | 0.477 µg/mL | > 50 µg/mL | > 50 µg/mL | 0.857 µg/mL | 0.748 µg/mL | 2.1 µg/mL |
